Results from publication PMC11290853.
Positions count from the first letter of the chain named. Like-named read-outs stand apart in the source and are kept apart here.

Tests used:
[1] = target: T1, type 1 cholecystokinin receptor, wild type, expressed in HEK-293 cells (human), P32238
T1 chain: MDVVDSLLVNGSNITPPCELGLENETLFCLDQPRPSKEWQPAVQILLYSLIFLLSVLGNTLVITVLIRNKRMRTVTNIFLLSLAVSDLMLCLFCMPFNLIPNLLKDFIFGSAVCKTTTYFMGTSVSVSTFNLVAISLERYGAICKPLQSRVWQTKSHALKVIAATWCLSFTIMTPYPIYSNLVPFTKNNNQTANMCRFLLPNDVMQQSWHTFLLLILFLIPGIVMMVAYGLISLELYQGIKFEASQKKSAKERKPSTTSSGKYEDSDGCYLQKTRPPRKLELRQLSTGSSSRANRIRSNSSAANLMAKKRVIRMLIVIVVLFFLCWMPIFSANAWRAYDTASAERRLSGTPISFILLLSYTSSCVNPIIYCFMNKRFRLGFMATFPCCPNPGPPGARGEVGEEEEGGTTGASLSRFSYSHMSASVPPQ

[2] = target: T2, type 2 cholecystokinin receptor, wild type, expressed in HEK-293 cells (human), P32239
T2 chain: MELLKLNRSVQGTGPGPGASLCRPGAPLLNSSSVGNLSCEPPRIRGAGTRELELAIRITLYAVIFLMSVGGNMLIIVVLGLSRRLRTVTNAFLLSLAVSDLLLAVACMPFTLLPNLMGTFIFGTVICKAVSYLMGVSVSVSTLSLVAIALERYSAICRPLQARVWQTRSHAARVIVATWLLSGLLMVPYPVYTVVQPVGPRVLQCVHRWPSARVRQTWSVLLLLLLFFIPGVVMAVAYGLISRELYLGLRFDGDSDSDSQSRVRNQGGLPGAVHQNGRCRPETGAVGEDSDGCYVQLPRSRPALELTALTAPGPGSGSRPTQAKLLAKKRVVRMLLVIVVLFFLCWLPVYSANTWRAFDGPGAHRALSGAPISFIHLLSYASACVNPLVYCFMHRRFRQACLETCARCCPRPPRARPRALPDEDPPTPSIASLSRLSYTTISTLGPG

[3] = target: T3, CCK2R(sterol 7M) expressed in HEK-293 cells (human), P32239
T3 chain: T2 chain with L143F, A149S, S154G, L225I, F228L, V232I, A235M

[4] = target: T4, type 1 cholecystokinin receptor, wild type, expressed in SRD15 cells (human), P32238
T4 chain: T1 chain

[5] = target: T5, CCK1R(sterol 7M) expressed in HEK-293 cells (human), P32238
T5 chain: T1 chain with F130L, S136A, G141S, I216L, L219F, I223V, M226A

[6] = target: T6, CCK1R(Y140A) expressed in HEK-293 cells (human), P32238
T6 chain: T1 chain with Y140A

[7] = target: T7, type 1 cholecystokinin receptor, wild type, expressed in CHO-K1 cells (human), P32238
T7 chain: T1 chain

[8] = target: T1, type 1 cholecystokinin receptor, wild …; test: radioligand binding
[9] = target: T2, type 2 cholecystokinin receptor, wild …; test: radioligand binding
[10] = target: T3, CCK2R(sterol 7M) expressed in HEK-293 …; test: radioligand binding
[11] = target: T4, type 1 cholecystokinin receptor, wild …; test: radioligand binding
[12] = target: T5, CCK1R(sterol 7M) expressed in HEK-293 …; test: radioligand binding
[13] = target: T6, CCK1R(Y140A) expressed in HEK-293 cells …; test: radioligand binding
[14] = target: T7, type 1 cholecystokinin receptor, wild …; test: radioligand binding
[15] = target: T1, type 1 cholecystokinin receptor, wild …; test: radioligand binding
[16] = target: T2, type 2 cholecystokinin receptor, wild …; test: radioligand binding
[17] = target: T3, CCK2R(sterol 7M) expressed in HEK-293 …; test: radioligand binding
[18] = target: T5, CCK1R(sterol 7M) expressed in HEK-293 …; test: radioligand binding
[19] = target: T6, CCK1R(Y140A) expressed in HEK-293 cells …; test: radioligand binding

Binder: WMDF (modifications not checked) [CCK-4, C-terminal tetrapeptide of cholecystokinin]
- iCa^2+, pEC50; HEK-293 cells, + Chol [1]: 6.2
- iCa^2+, pEC50; HEK-293 cells, control [1]: 5.5
- iCa^2+, pEC50; HEK-293 cells, + Chol [2]: 9.4
- iCa^2+, pEC50; HEK-293 cells, control [2]: 9.5
- iCa^2+, pEC50; HEK-293 cells, + Chol [3]: 9.2
- iCa^2+, pEC50; HEK-293 cells, control [3]: 9.1
- iCa^2+, pEC50; SRD15-CCK1R cells [4]: 6.8
- iCa^2+, pEC50; SRD15-CCK1R cells + MβCD (cholesterol depleted) [4]: 5.7
- iCa^2+, pEC50; HEK-293 cells, + Chol [5]: 6.8
- iCa^2+, pEC50; HEK-293 cells, control [5]: 6.7
- iCa^2+, pEC50; HEK-293 cells, + Chol [6]: 5.7
- iCa^2+, pEC50; HEK-293 cells, control [6]: 5.7
- iCa^2+, pEC50; CHO-CCK1R cells [7]: 5.3
- pIC50 [8]: 4.2
- pIC50 [9]: 7.7
- pIC50 [10]: 7.2
- pIC50 [11]: 5.5
- pIC50 [12]: < 4
- pIC50 [13]: 4.3
- pIC50 [14]: 4.5
- pIC50 [15]: 4
- pIC50 [16]: 7.8
- pIC50 [17]: 7.6
- pIC50 [18]: < 4
- pIC50 [19]: 4.3
